{
  "source": "paper PMC8532174",
  "molecular_target": "NS3h_2a(JFH1) helicase, wild type (Hepatitis C virus genotype 2a, isolate …, UniProt Q99IB8 1196-1661)",
  "sequence (Q99IB8 1196-1661)": "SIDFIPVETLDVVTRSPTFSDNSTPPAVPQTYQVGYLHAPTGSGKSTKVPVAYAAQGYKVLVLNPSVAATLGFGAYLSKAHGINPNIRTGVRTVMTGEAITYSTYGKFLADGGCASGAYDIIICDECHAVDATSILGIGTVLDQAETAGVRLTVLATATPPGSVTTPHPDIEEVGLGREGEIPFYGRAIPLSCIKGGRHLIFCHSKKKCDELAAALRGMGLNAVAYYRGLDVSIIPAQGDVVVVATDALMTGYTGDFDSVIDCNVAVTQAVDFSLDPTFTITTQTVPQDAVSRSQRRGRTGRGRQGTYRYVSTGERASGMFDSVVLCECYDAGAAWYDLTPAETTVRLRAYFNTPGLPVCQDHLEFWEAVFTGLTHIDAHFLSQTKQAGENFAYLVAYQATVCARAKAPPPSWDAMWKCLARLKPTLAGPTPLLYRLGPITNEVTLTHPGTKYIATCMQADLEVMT",
  "assay": "fluorescence polarization",
  "data": [
    {"binder": "TTTTTTTTTTTTTTT (ssDNA)", "note": "[Cy5-dT15]", "values": [
      {"measurement": "binding result", "value": "binds"}
    ]}
  ]
}
